The supplement of paper PMC10567573

B1: RBBP5 (parent)
chain: TGTSNTTAIKSIEFARKGSCFLIN
B2: KRT34 (parent)
chain: YQSYFKTIEELQQKILCAKAENAR

Variants of: B1
Test: protein stability index of a GFP-peptide fusion (GPS, HEK-293T) (PSI 1-6); higher = more stable
Conditions: c terminus: a fixed tail appended
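Further: lentivirally expressed fusions sorted by FACS into six bins by GFP to DsRed ratio, PSI derived from sequencing read proportions per bin multiplied by bin number.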

Point of comparison: K10F, protein stability index 2.9. Against it:
- T1K — lower, 2.45
- I23V — lower, 2.62
- T7W — lower, 1.95
- I12S — lower, 2.67
- I9E — higher, 2.91
- F14V — lower, 2.86
- K17D — lower, 2.7
- G18C — lower, 1.63
- R16I — higher, 3.29
- T3V — lower, 1.87
- T6F — lower, 2.09
- A15N — lower, 2.67
- T3R — lower, 1.88
- G2V — lower, 2.44
- S11H — higher, 3.02
- A8W — lower, 2.62
- I23G — lower, 2.73
- T1W — lower, 1.69
- A15G — lower, 2.38
- T7E — lower, 2.51
- T7Y — lower, 1.89
- G18K — lower, 2.3
- T7P — lower, 2.74
- I12P — higher, 3
- A15W — lower, 2.23
- L22M — lower, 2.64
- R16D — lower, 2.7
- S19Q — lower, 2.24
- T6L — lower, 2.16
- G18L — lower, 2.35
- T6M — lower, 2.04
- A15Q — lower, 2.51
- A8M — lower, 2.21
- C20S — lower, 2.59
- F21W — lower, 2.25
- N5G — lower, 2.12
- R16M — lower, 1.75
- F14H — lower, 2.73
- A15H — lower, 2.39
- G18Y — lower, 2.07
- G18I — lower, 2.2
- T3F — lower, 1.61
- G18Q — lower, 2.28
- S11E — lower, 2.23
- G18H — lower, 1.74
- T7A — lower, 2.85
- S4A — lower, 2.29
- E13K — lower, 2.19
- C20K — lower, 2.58
- I23F — lower, 1.98
- S19A — lower, 1.62
- T3P — lower, 2.46
- F21P — higher, 3.13
- S11T — lower, 2.1
- L22F — lower, 1.99
- A8F — lower, 1.81
- T6V — lower, 1.87
- T1H — lower, 2.59
- S11C — lower, 1.74
- F21I — lower, 2.37
- E13G — lower, 2.11
- G2K — lower, 2.31
- T7Q — lower, 2.66
- L22D — higher, 3.15
- L22C — lower, 2.79
- F14N — higher, 3.17
- T7R — lower, 2.15
- S4T — lower, 1.95
- S11Y — lower, 1.32
- K10S — higher, 2.93
- L22Y — lower, 2.54
- G2L — lower, 2.18
- F14M — lower, 2.69
- K17F — lower, 2.17
- I9N — lower, 2.44
- K17T — lower, 2.46
- G18E — lower, 2.62
- R16F — lower, 2.26
- R16T — lower, 2.26
- S19C — lower, 2.67
- F14T — higher, 2.97
- G2H — lower, 2.03
- G2E — lower, 2.75
- I12T — lower, 2.61
- T6C — lower, 2.05
- I9W — lower, 1.5
- I23R — higher, 3.03
- E13L — lower, 2.38
- E13W — lower, 2.23
- N24F — lower, 2.74
- I9G — lower, 2.37
- F14K — higher, 3.17
- E13H — lower, 2.4
- K17H — lower, 2.33
- R16V — lower, 1.99
- S19I — lower, 2.75

Variants of: B2
Test: as above
Conditions: c terminus: a fixed tail appended

Point of comparison: Q12S, protein stability index 1.77. Against it:
- Y1A — higher, 3.3
- Y1C — higher, 2.23
- Y1D — higher, 4.17
- Y1E — higher, 4.59
- Y1F — higher, 1.96
- Y1G — higher, 3.95
- Y1H — higher, 2.56
- Y1I — lower, 1.52
- Y1K — higher, 2.88
- Y1L — lower, 1.55
- Y1M — higher, 2.1
- Y1N — higher, 3.45
- Y1P — higher, 3.59
- Y1Q — higher, 3.45
- Y1R — higher, 2.94
- Y1S — higher, 2.93
- Y1T — higher, 3.08
- Y1V — higher, 2.27
- Q2A — higher, 2.1
- Q2C — higher, 1.88
- Q2D — higher, 2.13
- Q2E — higher, 3.07
- Q2F — higher, 2.53
- Q2G — higher, 2.12
- Q2H — higher, 3.43
- Q2I — lower, 1.57
- Q2K — higher, 2.54
- Q2L — higher, 1.9
- Q2M — higher, 2.14
- Q2N — higher, 2.28
- Q2P — higher, 2.26
- Q2R — higher, 2.25
- Q2S — higher, 2.5
- Q2T — lower, 1.59
- Q2V — lower, 1.54
- Q2W — higher, 2.39
- Q2Y — higher, 2.04
- S3A — higher, 2.69
- S3C — higher, 1.96
- S3D — higher, 1.98
- S3E — lower, 1.67
- S3F — higher, 1.8
- S3G — higher, 1.85
- S3H — lower, 1.5
- S3I — lower, 1.61
- S3K — higher, 1.96
- S3L — the same, 1.77
- S3M — the same, 1.77
- S3N — higher, 2.23
- S3P — higher, 1.97
- S3Q — higher, 2.3
- S3R — higher, 1.79
- S3T — lower, 1.61
- S3V — lower, 1.62
- S3W — lower, 1.54
- S3Y — higher, 2.13
- Y4A — higher, 2.2
- Y4C — lower, 1.73
- Y4D — higher, 2.24
- Y4E — lower, 1.63
- Y4F — higher, 1.86
- Y4G — higher, 3.06
- Y4H — higher, 2.4
- Y4I — higher, 2.27
- Y4K — lower, 1.52
- Y4L — higher, 1.93
- Y4M — lower, 1.48
- Y4N — higher, 2.21
- Y4P — higher, 2.19
- Y4Q — higher, 2.65
- Y4R — higher, 2.14
- Y4S — higher, 2
- Y4T — higher, 2.98
- Y4V — lower, 1.57
- F5A — higher, 2.01
- F5C — higher, 2.24
- F5D — higher, 3.68
- F5E — higher, 4.08
- F5G — higher, 3.23
- F5H — higher, 2.34
- F5I — higher, 1.94
- F5K — higher, 2.84
- F5L — higher, 1.81
- F5M — higher, 2.62
- F5N — higher, 3.02
- F5P — higher, 1.89
- F5Q — higher, 2.53
- F5R — lower, 1.6
- F5S — higher, 2.73
- F5T — higher, 2.12
- F5V — higher, 1.9
- F5W — lower, 1.32
- F5Y — lower, 1.62
- K6A — higher, 1.96
- K6C — lower, 1.51
- K6D — higher, 2.01
- K6E — higher, 1.85
- K6G — higher, 2.09
- K6H — higher, 2.24
- K6I — higher, 1.91
- K6L — higher, 2.3
- K6M — higher, 2.1
- K6P — higher, 1.81
- K6Q — higher, 2.53
- K6R — higher, 1.82
- K6S — lower, 1.74
- K6T — higher, 2.67
- K6V — higher, 2.83
- K6W — higher, 2.18
- K6Y — lower, 1.66
- T7A — higher, 2.2
- T7C — lower, 1.64
- T7D — higher, 2.44
- T7E — higher, 2.58
- T7F — higher, 1.81
- T7G — higher, 1.96
- T7H — higher, 2.35
- T7I — higher, 1.84
- T7K — lower, 1.58
- T7L — lower, 1.64
- T7M — lower, 1.67
- T7N — higher, 2.34
- T7P — the same, 1.77
- T7Q — higher, 2.07
- T7R — higher, 1.86
- T7S — higher, 3.16
- T7V — lower, 1.72
- T7Y — higher, 2.24
- I8A — higher, 2.26
- I8C — lower, 1.57
- I8D — higher, 2.59
- I8E — higher, 2.6
- I8F — higher, 2.23
- I8G — lower, 1.48
- I8H — lower, 1.62
- I8K — higher, 2.47
- I8L — higher, 1.98
- I8M — higher, 2.26
- I8P — higher, 2.24
- I8Q — lower, 1.37
- I8R — higher, 2.09
- I8S — the same, 1.77
- I8T — lower, 1.35
- I8V — higher, 2.85
- I8W — lower, 1.42
- I8Y — higher, 2.52
- E9A — the same, 1.77
- E9C — higher, 1.87
- E9D — higher, 2.25
- E9F — lower, 1.73
- E9G — lower, 1.64
- E9H — higher, 2.46
- E9I — higher, 2
- E9K — higher, 2.2
- E9L — lower, 1.53
- E9M — higher, 3.64
- E9N — higher, 2.45
- E9P — lower, 1.29
- E9Q — higher, 1.9
- E9R — lower, 1.75
- E9S — higher, 1.99
- E9T — higher, 1.84
- E9V — higher, 3.47
- E9W — higher, 2.23
- E9Y — lower, 1.64
- E10A — higher, 1.95
- E10C — lower, 1.44
- E10D — lower, 1.61
- E10F — higher, 2.41
- E10G — lower, 1.7
- E10H — lower, 1.69
- E10I — higher, 1.96
- E10K — higher, 1.81
- E10L — higher, 1.91
- E10M — higher, 2
- E10N — higher, 2.19
- E10P — higher, 1.93
- E10Q — lower, 1.19
- E10R — higher, 2.49
- E10S — higher, 1.83
- E10T — lower, 1.27
- E10V — higher, 2.04
- E10W — lower, 1.72
- E10Y — higher, 2.74
- L11A — higher, 1.79
- L11C — higher, 2.56
- L11D — lower, 1.5
- L11E — higher, 1.88
- L11F — lower, 1.4
- L11G — higher, 2.58
- L11H — lower, 1.55
- L11I — higher, 2.13
- L11K — higher, 2.34
- L11M — higher, 1.81
- L11N — higher, 2.41
- L11P — higher, 2.3
- L11Q — higher, 1.98
- L11R — higher, 1.83
- L11S — lower, 1.2
- L11T — lower, 1.62
- L11V — lower, 1.35
- L11W — higher, 1.93
- L11Y — higher, 2.08
- Q12A — lower, 1.6
- Q12C — higher, 1.78
- Q12D — lower, 1.69
- Q12E — lower, 1.48
- Q12F — higher, 2.02
- Q12G — higher, 1.97
- Q12H — higher, 2.34
- Q12I — higher, 3.66
- Q12K — higher, 2
- Q12L — higher, 1.9
- Q12M — higher, 2.15
- Q12N — lower, 1.65
- Q12P — lower, 1.4
- Q12R — higher, 2.63
- Q12T — higher, 2.21
- Q12V — lower, 1.55
- Q12Y — the same, 1.77
- Q13A — higher, 2.02
- Q13C — higher, 1.82
- Q13D — higher, 2.26
- Q13E — higher, 2.2
- Q13F — higher, 2.05
- Q13G — higher, 1.96
- Q13H — higher, 2.29
- Q13I — lower, 1.5
- Q13K — higher, 1.95
- Q13L — lower, 1.46
- Q13M — higher, 1.82
- Q13N — higher, 1.92
- Q13P — higher, 1.78
- Q13R — higher, 2.16
- Q13S — lower, 1.52
- Q13T — lower, 1.74
